What all share (experiment): resonant mirror detection (IAsys)
The target in one experiment is CaM (Homo sapiens, UniProt P0DP23).
The target in experiment [1] is T1, band 3cyt cytoplasmic domain (Homo sapiens, UniProt P02730).
T1 chain: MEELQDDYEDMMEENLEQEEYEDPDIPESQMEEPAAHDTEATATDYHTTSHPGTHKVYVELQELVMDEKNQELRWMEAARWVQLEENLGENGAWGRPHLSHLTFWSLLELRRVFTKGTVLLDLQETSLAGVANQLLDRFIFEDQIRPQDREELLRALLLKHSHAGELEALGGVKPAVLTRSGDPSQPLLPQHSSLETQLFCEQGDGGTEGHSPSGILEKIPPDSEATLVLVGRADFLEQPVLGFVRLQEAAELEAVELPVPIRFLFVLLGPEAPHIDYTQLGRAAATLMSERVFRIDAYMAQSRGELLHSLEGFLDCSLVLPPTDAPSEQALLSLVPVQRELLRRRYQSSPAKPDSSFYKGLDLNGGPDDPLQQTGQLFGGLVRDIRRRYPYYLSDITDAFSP

Experiment [2] concerns the target T2, GPCcyt cytoplasmic domain (Homo sapiens, UniProt P04921).
T2 chain: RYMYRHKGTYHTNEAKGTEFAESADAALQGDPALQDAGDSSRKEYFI

Broadly, the Kd is a measure of binding affinity in units of concentration.

B1: 4.1R135 (protein)
chain: MTTEKSLVTEAENSQHQQKEEGEEAINSGQQEPQQEESCQTAAEGDNWCEQKLKASNGDTPTHEDLTKNKERTSESRGLSRLFSSFLKRPKSQVSEEEGKEVESDKEKGEGGQKEIEFGTSLDEEIILKAPIAAPEPELKTDPSLDLHSLSSAETQPAQEELREDPDFEIKEGEGLEECSKIEVKEESPQSKAETELKASQKPIRKHRNMHCKVSLLDDTVYECVVEKHAKGQDLLKRVCEHLNLLEEDYFGLAIWDNATSKTWLDSAKEIKKQVRGVPWNFTFNVKFYPPDPAQLTEDITRYYLCLQLRQDIVAGRLPCSFATLALLGSYTIQSELGDYDPELHGVDYVSDFKLAPNQTKELEEKVMELHKSYRSMTPAQADLEFLENAKKLSMYGVDLHKAKDLEGVDIILGVCSSGLLVYKDKLRINRFPWPKVLKISYKRSSFFIKIRPGEQEQYESTIGFKLPSYRAAKKLWKVCVEHHTFFRLTSTDTIPKSKFLALGSKFRYSGRTQAQTRQASALIDRPAPHFERTASKRASRSLDGAAAVDSADRSPRPTSAPAITQGQVAEGGVLDASAKKTVVPKAQKETVKAEVKKEDEPPEQAEPEPTEAWKVEKTHIEVTVPTSNGDQTQKLAEKTEDLIRMRKKKRERLDGENIYIRHSNLMLEDLDKSQEEIKKHHASISELKKNFMESVPEPRPSEWDKRLSTHSPFRTLNINGQIPTGEGPPLVKTQTVTISDNANAVKSEIPTKDVPIVHTETKTITYEAAQTDDNSGDLDPGVLLTAQTITSETPSSTTTTQITKTVKGGISETRIEKRIVITGDADIDHDQVLVQAIKEAKEQHPDMSVTKVVVHQETEIADE
modifications: EGTA (no Ca2+)
On to B1, for which, in the experiment with CaM, the Kd turned out to be 11700 nM. That is a double-digit micromolar value.

B2: 4.1R135 (protein)
chain: B1 chain
B2: the Kd in experiment [1] is 23 nM; in experiment [2] it was 1330 nM.

B3: 4.1R135 (protein)
chain: B1 chain
modifications: Ca2+
In the case of B3, the Kd with CaM was 78 nM.

The values are drawn from article PMC3166722 (2011).
